The target in this assay is human CXCR3 isoform 1 (human) (UniProt P49682). The assay is described as follows: cell-based or functional assay.
UniProt P49682, sequence (P49682 whole entry, canonical isoform): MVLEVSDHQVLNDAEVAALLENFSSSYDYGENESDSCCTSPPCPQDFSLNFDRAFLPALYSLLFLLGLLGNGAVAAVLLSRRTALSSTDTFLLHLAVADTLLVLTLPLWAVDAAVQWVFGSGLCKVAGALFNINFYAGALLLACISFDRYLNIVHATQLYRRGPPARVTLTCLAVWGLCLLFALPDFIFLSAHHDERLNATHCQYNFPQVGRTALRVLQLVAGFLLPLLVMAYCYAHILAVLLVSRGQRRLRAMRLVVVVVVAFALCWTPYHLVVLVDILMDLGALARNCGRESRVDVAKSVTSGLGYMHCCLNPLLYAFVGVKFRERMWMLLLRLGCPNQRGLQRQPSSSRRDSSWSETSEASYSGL

B1: ITAC (CXCL11) (ligand, UniProt O14625 22-94, looked up, species assumed)
C-X-C motif chemokine 11: FPMFKRGRCLCIGPGVKAVKVADIEKASIMYPSNNCDKIEVIITLKENKGQRCLNPKSKQARLIIKKVERKNF
For the molecule B1, the migration of B cells to 100 ng/ml ITAC (CXCL11), fold increase against control cells was 10 fold; the migration of CD4 cells to 100 ng/ml ITAC (CXCL11), fold increase against control cells was over 4 fold; the migration of CD8 cells to 100 ng/ml ITAC (CXCL11), fold increase against control cells turned out to be 2.5 fold.

These data come from US20260234667A1.
